According to patent publication US20240058441A1 (published 2024):

Biological target: KRas protein (purified) (UniProt P01116 1-186)
Experiment: SPR

Row | Kd [nM] | Binder
1 | 1.09 | TKDm molecule (control molecule of TKD with mutated CTM, CTMmt, incapable of being recognized by lysosome) (VHH) VHH: DVQLQESGGGLVQAGGSLRLSCVASGRTFSTYPTGWFRQAPGKEREFVARINLSGGITNYADSVKGRFTISRDNAKNTVYLQMNSLKPEDTAVYYCGGGSTTWAGGIPTNFDYWGQGTQVTVSS
2 | 7.24 | TKD molecule (nanobody-mediated KRas protein targeting degradation system; fusion protein BR2 - anti-KRas nanobody VHH - CTM) (VHH) VHH: DVQLQESGGGLVQAGGSLRLSCVASGRTFSTYPTGWFRQAPGKEREFVARINLSGGITNYADSVKGRFTISRDNAKNTVYLQMNSLKPEDTAVYYCGGGSTTWAGGIPTNFDYWGQGTQVTVSS
